Measurements as given in patent publication US20230322924A1 (Janssen / Centocor, published 2023).
Changes are numbered by the printed parent chain. Numbers in names are those of the source.

B1: C33B55 (antibody, IgG1, V domains shown)
VH: QVQLVESGGGVVQPGRSLRLSCAASGFTFSSYGMHWVRQSPGKGLEWVAVISYDGSNKYCADSVKGRFTISRDNSKSTLYLQMNSLRAEDTAVYYCAKDFRSLDWLPPDSTSYDGMDVWGQGTTVTVSS
VL: SYELTQPPSVSVSPGQTASITCSGHKLGDKYACWYQQKPGQSPVVVIYKDSKRPSGIPERFSGSNFGNTATLTISGTQAMDEADYYCQAWDSSTVVFGGGTKLTVL
notes: huIgG1 F405L; also called C33F60; C33H45/C33L11
B2: C33B63 (antibody, IgG1, V domains shown)
VH: QLQLQESGPGLVKPSETLSLTCTVSGGSISTGRYYWGWIRQPPGKGVIWIGNIYYSGNTYYNPSLKSRVTISVDTSKNQFSLKLNSVTAADTAVYYCARLGSLVVVPAAMSFDYWGQGTLVTVSS
VL: B1 VL with H25D, Q37L, K38R, V44I, V45L, K49Q, K52N, F66S, V95W
notes: huIgG1 F405L; also called C33F68; C33H51/C33L34
B3: C33B52 (antibody, IgG1, V domains shown)
VH: QLQLQESGPGLVNPSETLSHTCTVSGGSISSSSHYWGWIRQPPGKGLEWIGKIYYSGNTYYNPSLKSRVTISIDTSKNQFSLKMSSVTAADTAVYYCARLADVVVVPAARYFDSWGQGTLVTVSS
VL: B1 VL with T21I, H25D, D29N, V45L, K49Q, F66S, M80V, V95Y, G99T, L103V
notes: huIgG1 F405L; also called C33F57; C33H42/C33L8
B4: C33B125 (antibody, IgG1, V domains shown)
VH: B1 VH with S40A, C60Y, S77N, L103F, D114Y
VL: B1 VL with H25D, A32V, Y48H, K49Q, S51R
notes: huIgG1 F405L; also called C33F130; C33H84/C33L66
B5: C33B73 (antibody, IgG1, V domains shown)
VH: B1 VH with A23V, S40A, C60Y, S77N, D90G, L103F, T111A, D114H
VL: B1 VL with H25D, V45L, K49Q, S51G, T69K, S92R, S93N
notes: huIgG1 F405L; also called C33F78; C33H66/C33L60
B6: C33B82 (antibody, IgG1, V domains shown)
VH: B1 VH with S40A, C60Y, S77N, Y80F, S102Y, L103F, T111S, D114Y
VL: B1 VL with H25D, K26E, D29N, I47V, K49Q, S51R
notes: huIgG1 F405L; also called C33F87; C33H78/C33L57
B7: C33B77 (antibody, IgG1, V domains shown)
VH: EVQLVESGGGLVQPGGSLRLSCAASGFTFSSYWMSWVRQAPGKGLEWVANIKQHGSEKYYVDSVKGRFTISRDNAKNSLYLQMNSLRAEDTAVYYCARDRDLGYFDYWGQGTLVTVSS
VL: B1 VL with H25N, D29A, Y31F, C33S, V45L, K49Q, S51N, F66S, M80V
notes: huIgG1 F405L; also called C33F82; C33H72/C33L40
B8: C33B83 (antibody, V domains shown)
VH: B1 VH with S31A, S40A, C60Y, S77N, D90G, L103F, T111A, D114H
VL: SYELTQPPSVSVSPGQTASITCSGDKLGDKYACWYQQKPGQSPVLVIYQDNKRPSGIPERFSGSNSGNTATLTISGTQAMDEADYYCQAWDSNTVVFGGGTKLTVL
notes: huIgG1 F405L; also called C33F88; C33H81/C33L53
B9: C33B79 (antibody, IgG1, V domains shown)
VH: B1 VH with G26R, S40A, C60Y, S77N, Y94H, L103F, T111A, D114H
VL: B1 VL with S13P, H25D, V45L, K49Q, S51N, F66S, D91G, S92R, S93N
notes: huIgG1 F405L; also called C33F84; C33H74/C33L38
B10: C33B87 (antibody, IgG1, V domains shown)
VH: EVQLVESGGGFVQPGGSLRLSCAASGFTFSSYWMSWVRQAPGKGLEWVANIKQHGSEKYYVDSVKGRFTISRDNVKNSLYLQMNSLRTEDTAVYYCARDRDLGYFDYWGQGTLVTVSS
VL: B1 VL with H25D, D29N, C33S, V45L, K49Q, S51T, F61V, F66S, Y86H
notes: huIgG1 F405L; also called C33F92; C33H87/C33L35

Legend:
[1] = molecular target: T1, Cyno CD33 full length, expressed on HEK293F cells (cynomolgus monkey); assay: flow cytometry, HEK293F cells expressing cyno CD33
T1 construct: HEK293F cells transduced with lentivirus containing full length cyno CD33 (Genbank XP_005590138.1); also called cyCD33

[2] = molecular target: T2, Cyno CD33 ECD-HSA (cynomolgus monkey); assay: SPRi off-rate screen (IBIS MX96), mAb captured by anti-human Fc; column head prints Cyno CD33 binding KD
T2 construct: Cyno CD33 extracellular domain fused to monomeric human serum albumin and a six-histidine tag; also called C33W1

[3] = molecular target: Human CD33 ECD-HSA (human); assay: SPRi off-rate screen (IBIS MX96), mAb captured by anti-human Fc; column head prints KD
Sequence of Human CD33 ECD-HSA (human) (chain, as listed by the source): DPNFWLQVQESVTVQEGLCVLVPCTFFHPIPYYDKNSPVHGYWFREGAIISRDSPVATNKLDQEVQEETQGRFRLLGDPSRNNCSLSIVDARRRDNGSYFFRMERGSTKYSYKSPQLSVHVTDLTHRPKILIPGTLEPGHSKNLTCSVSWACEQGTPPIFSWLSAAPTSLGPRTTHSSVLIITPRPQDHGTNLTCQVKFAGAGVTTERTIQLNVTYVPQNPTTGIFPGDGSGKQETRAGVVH

[4] = molecular target: T3, Human CD33 full length, expressed on HEK293F cells (human, UniProt P20138 18-364); assay: flow cytometry, HEK293F cells expressing human CD33
T3 construct: HEK293F cells transduced with lentivirus containing full length human CD33; also called huCD33
T3 sequence (P20138 18-364 limits assumed): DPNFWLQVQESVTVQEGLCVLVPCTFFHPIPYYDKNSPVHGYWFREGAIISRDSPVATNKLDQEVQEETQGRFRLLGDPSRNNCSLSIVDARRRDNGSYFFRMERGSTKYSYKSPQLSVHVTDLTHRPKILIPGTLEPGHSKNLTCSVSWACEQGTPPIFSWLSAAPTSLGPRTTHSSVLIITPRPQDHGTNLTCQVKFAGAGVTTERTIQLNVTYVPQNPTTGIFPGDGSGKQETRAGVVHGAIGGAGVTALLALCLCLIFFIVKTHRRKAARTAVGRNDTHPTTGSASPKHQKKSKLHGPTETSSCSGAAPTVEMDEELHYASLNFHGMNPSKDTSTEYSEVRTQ

[5] = molecular target: T2, Cyno CD33 ECD-HSA; assay: ProteOn SPR, mAb captured by anti-human Fc, 1:1 Langmuir fit
[6] = molecular target: Human CD33 ECD-HSA (human); assay: as above

| Binder | MFI at 0 nM mAb (background) [1] | MFI at 0.6 nM mAb [1] | MFI at 6 nM mAb [1] | MFI at 60 nM mAb [1] | koff [2] | koff [3] | MFI at 0 nM mAb (background) [4] | MFI at 0.6 nM mAb [4] | MFI at 6 nM mAb [4] | MFI at 60 nM mAb [4] | Kd [5] | koff [5] | kon [5] | Kd [6] | koff [6] | kon [6] |
| --- | --- | --- | --- | --- | --- | --- | --- | --- | --- | --- | --- | --- | --- | --- | --- | --- |
| B1 | 69.4 MFI | 2430 MFI | 9990 MFI | 16000 MFI | 0.000116 s⁻¹ | 0.000215 s⁻¹ | 105 MFI | 7630 MFI | 59200 MFI | 188000 MFI | 0.0723 nM | 8.37e-05 s⁻¹ | 1.16e+06 M⁻¹ s⁻¹ | 0.26 nM | 0.000253 s⁻¹ | 985000 M⁻¹ s⁻¹ |
| B2 | 87.9 MFI | 2880 MFI | 11600 MFI | 18300 MFI | 0.000947 s⁻¹ | 0.00457 s⁻¹ | 86.3 MFI | 9670 MFI | 62200 MFI | 248000 MFI | 1.22 nM | 0.00088 s⁻¹ | 723000 M⁻¹ s⁻¹ | 7.01 nM | 0.00374 s⁻¹ | 533000 M⁻¹ s⁻¹ |
| B3 | 75.2 MFI | 2060 MFI | 8440 MFI | 12600 MFI | 0.0012 s⁻¹ | 0.00313 s⁻¹ | 82.5 MFI | 6750 MFI | 46300 MFI | 197000 MFI | 4.74 nM | 0.00148 s⁻¹ | 313000 M⁻¹ s⁻¹ | 19.2 nM | 0.00396 s⁻¹ | 206000 M⁻¹ s⁻¹ |
| B4 | 70.2 MFI | 3460 MFI | 11500 MFI | 15600 MFI | 0.000351 s⁻¹ | 0.000154 s⁻¹ | 78.3 MFI | 9200 MFI | 79700 MFI | 259000 MFI | 0.304 nM | 0.000339 s⁻¹ | 1.12e+06 M⁻¹ s⁻¹ | 0.14 nM | 0.000134 s⁻¹ | 992000 M⁻¹ s⁻¹ |
| B5 | 72.5 MFI | 796 MFI | 6990 MFI | 14800 MFI | 0.000408 s⁻¹ | 9.12e-05 s⁻¹ | 94 MFI | 4030 MFI | 33400 MFI | 201000 MFI | 0.846 nM | 0.000508 s⁻¹ | 600000 M⁻¹ s⁻¹ | 0.1 nM | 5.59e-05 s⁻¹ | 559000 M⁻¹ s⁻¹ |
| B6 | 84.2 MFI | 1540 MFI | 6620 MFI | 14300 MFI | 0.00067 s⁻¹ | 0.000341 s⁻¹ | 73.4 MFI | 5030 MFI | 41300 MFI | 189000 MFI | 1.38 nM | 0.000751 s⁻¹ | 545000 M⁻¹ s⁻¹ | 0.61 nM | 0.00027 s⁻¹ | 445000 M⁻¹ s⁻¹ |
| B7 | 85.2 MFI | 3600 MFI | 11700 MFI | 17500 MFI | 0.000418 s⁻¹ | 0.000337 s⁻¹ | 69.5 MFI | 11500 MFI | 88700 MFI | 242000 MFI | 0.247 nM | 0.000266 s⁻¹ | 1.08e+06 M⁻¹ s⁻¹ | 0.32 nM | 0.000262 s⁻¹ | 828000 M⁻¹ s⁻¹ |
| B8 | 87.3 MFI | 159 MFI | 687 MFI | 5300 MFI | 0.00217 s⁻¹ | 0.000461 s⁻¹ | 87.4 MFI | 1020 MFI | 7860 MFI | 93000 MFI | 11.7 nM | 0.00288 s⁻¹ | 247000 M⁻¹ s⁻¹ | 1.93 nM | 0.000521 s⁻¹ | 270000 M⁻¹ s⁻¹ |
| B9 | 63.6 MFI | 1080 MFI | 6430 MFI | 15500 MFI | 0.00682 s⁻¹ | 0.000328 s⁻¹ | 77.8 MFI | 4990 MFI | 41900 MFI | 237000 MFI | 4.01 nM | 0.0022 s⁻¹ | 548000 M⁻¹ s⁻¹ | 0.76 nM | 0.00039 s⁻¹ | 515000 M⁻¹ s⁻¹ |
| B10 | 103 MFI | 3270 MFI | 12700 MFI | 19600 MFI | 0.000228 s⁻¹ | 0.000352 s⁻¹ | 73.7 MFI | 12500 MFI | 79500 MFI | 242000 MFI | 0.236 nM | 0.000264 s⁻¹ | 1.12e+06 M⁻¹ s⁻¹ | 0.6 nM | 0.000432 s⁻¹ | 720000 M⁻¹ s⁻¹ |
